In patent US6677436:
Substitutions are numbered along the chain they refer to.

B1: H chain humanized version a/L chain humanized version a antibody (antibody, V domains shown)
VH: QVQLLESGAVLARPGTSVKISCKASGFNIKDYYMHWVKQRPGQGLEWIGGNDPANGHSMYDPKFQGRAKLTAATSASIAYLEFSSLTNEDSAVYYCARDSGYAMDYWGQGTLVTVSS
VL: DIQMTQSPSSLSASVGDRVTITCKASQDIKSFLSWYQQKPGKAPKLLIYYATSLADGVPSRFSGSGSGTDFTLTISSLQPEDFATYYCLQHGESPYTFGGGTKVEIK
notes: Expressed from vector N5KG4P (IgG4-type, human Cgamma4 and Ckappa); also called hHva-hLva/N5KG4P
B2: H chain humanized version b/L chain chimeric antibody (antibody, V domains shown)
VH: QVQLLESGAVLARPGTSVKISCKASGFNIKDYYMHWVKQRPGQGLEWIGGNDPANGHSMYDPKFQGRVTITADTSTNTAYMELSSLRSEDTAIYYCARDSGYAMDYWGQGTLVTVSS
VL: DIKMTQSPSSMYASLGERVTITCKASQDIKSFLSWYQQKPWKSPKTLIYYATSLADGVPSRFSGSGSGQDYSLTINNLESDDTATYYCLQHGESPYTFGGGTKLEIK
notes: Expressed from vector N5KG4P (IgG4-type, human Cgamma4 and Ckappa); also called b-ch; hHvb-chLv/N5KG4P
B3: H chain chimeric/L chain humanized version b antibody (antibody, V domains shown)
VH: EVQLQQSGTNLVRPGALVKLSCKGSGFNIKDYYMHWVKQRPEQGLEWIGGNDPANGHSMYDPKFQGKASITADTSSNTAYLQLSSLTSEDTAVYFCARDSGYAMDYWGQGTSVTVSS
VL: B1 VL with F71Y
notes: Expressed from vector N5KG4P (IgG4-type, human Cgamma4 and Ckappa); also called ch-b; chHv-hLvb/N5KG4P
B4: H chain humanized version g/L chain humanized version b antibody (antibody, V domains shown)
VH: B2 VH with R67K, V68A, I70L, T74E, T76S, N77S, E82Q, T91S, I93V, Y95S
VL: B1 VL with F71Y
notes: Expressed from vector N5KG4P (IgG4-type, human Cgamma4 and Ckappa); also called g-b; hHvg-hLvb/N5KG4P
B5: H chain humanized version b3/L chain humanized version b antibody (antibody, V domains shown)
VH: B2 VH with K38R, R40A
VL: B1 VL with F71Y
notes: Expressed from vector N5KG4P (IgG4-type, human Cgamma4 and Ckappa); also called b3-b; hHvb3-hLvb/N5KG4P
B6: H chain humanized version i/L chain chimeric antibody (antibody, V domains shown)
VH: B2 VH with N77S, A79V, Y80F, I93V
VL: B2 VL
notes: Expressed from vector N5KG4P (IgG4-type, human Cgamma4 and Ckappa); also called i-ch; hHvi-chLv/N5KG4P
B7: H chain humanized version d3/L chain humanized version b antibody (antibody, V domains shown)
VH: B2 VH with K38R, R40A, T74E, N77S, T91S, I93V, Y95F
VL: B1 VL with F71Y
notes: Expressed from vector N5KG4P (IgG4-type, human Cgamma4 and Ckappa); also called d3-b; hHvd3-hLvb/N5KG4P
B8: H chain humanized version e/L chain chimeric antibody (antibody, V domains shown)
VH: B2 VH with T69S, T74E, N77K, T78I, S84N, I93V, Y95F
VL: B2 VL
notes: Expressed from vector N5KG4P (IgG4-type, human Cgamma4 and Ckappa); also called e-ch; hHve-chLv/N5KG4P
B9: H chain humanized version b/L chain humanized version c antibody (antibody, V domains shown)
VH: B2 VH
VL: B1 VL with F71Y, F83I
notes: Humanized antibodies were expressed from vector N5KG4P (IgG4-type); the construction of the b-c plasmid itself is not described; also called b-c
B10: H chain humanized version b/L chain humanized version a antibody (antibody, V domains shown)
VH: B2 VH
VL: B1 VL
notes: Expressed from vector N5KG4P (IgG4-type, human Cgamma4 and Ckappa); also called b-a; hHvb-hLva/N5KG4P
B11: H chain chimeric/L chain humanized version a antibody (antibody, V domains shown)
VH: B3 VH
VL: B1 VL
notes: Expressed from vector N5KG4P (IgG4-type, human Cgamma4 and Ckappa); also called chHv-hLva/N5KG4P
B12: H chain humanized version b/L chain humanized version b2 antibody (antibody, V domains shown)
VH: B2 VH
VL: B1 VL with G41E, L46S, F71Y
notes: Expressed from vector N5KG4P (IgG4-type, human Cgamma4 and Ckappa); also called b-b2; hHvb-hLvb2/N5KG4P
B13: H chain humanized version d/L chain chimeric antibody (antibody, V domains shown)
VH: B2 VH with T74E, N77S, T91S, I93V, Y95F
VL: B2 VL
notes: Expressed from vector N5KG4P (IgG4-type, human Cgamma4 and Ckappa); also called d-ch; hHvd-chLv/N5KG4P
B14: H chain chimeric/L chain humanized version c antibody (antibody, V domains shown)
VH: B3 VH
VL: B1 VL with F71Y, F83I
notes: Expressed from vector N5KG4P (IgG4-type, human Cgamma4 and Ckappa); also called ch-c; chHv-hLvc/N5KG4P
B15: H chain humanized version i/L chain humanized version b1 antibody (antibody, V domains shown)
VH: B2 VH with N77S, A79V, Y80F, I93V
VL: B1 VL with Y36F, A43S, L46T, F71Y
notes: Expressed from vector N5KG4P (IgG4-type, human Cgamma4 and Ckappa); also called i-b1; hHvi-hLvb1/N5KG4P
B16: H chain humanized version a/L chain chimeric antibody (antibody, V domains shown)
VH: B1 VH
VL: B2 VL
notes: Expressed from vector N5KG4P (IgG4-type, human Cgamma4 and Ckappa); also called a-ch; hHva-chLv/N5KG4P
B17: H chain humanized version c/L chain chimeric antibody (antibody, V domains shown)
VH: QVQLLESGAVLARPGTSVKISCKASGFNIKDYYMHWVKQRPGQGLEWIGGNDPANGHSMYDPKFQGRVTMLVDTSKNQFSLRLSSVTAADTAVYYCARDSGYAMDYWGQGTLVTVSS
VL: B2 VL
notes: Expressed from vector N5KG4P (IgG4-type, human Cgamma4 and Ckappa); also called c-ch; hHvc-chLv/N5KG4P
B18: H chain humanized version i/L chain humanized version b antibody (antibody, V domains shown)
VH: B2 VH with N77S, A79V, Y80F, I93V
VL: B1 VL with F71Y
notes: Expressed from vector N5KG4P (IgG4-type, human Cgamma4 and Ckappa); also called hHvi-hLvb/N5KG4P
B19: H chain humanized version i/L chain humanized version b2 antibody (antibody, V domains shown)
VH: B2 VH with N77S, A79V, Y80F, I93V
VL: B1 VL with G41E, L46S, F71Y
notes: Expressed from vector N5KG4P (IgG4-type, human Cgamma4 and Ckappa); also called i-b2; ib2

Each binder was assayed against T1, human tissue factor (TF) on human bladder carcinoma cells J82 (human, UniProt P13726 33-295) (assay: cell ELISA on fixed J82 cells).
T1 construct: whole, on cells; J82 is described as a TF-high expression cell line; also called the antigen; J82 (ATCC HTB-1)
T1 sequence (P13726 33-295): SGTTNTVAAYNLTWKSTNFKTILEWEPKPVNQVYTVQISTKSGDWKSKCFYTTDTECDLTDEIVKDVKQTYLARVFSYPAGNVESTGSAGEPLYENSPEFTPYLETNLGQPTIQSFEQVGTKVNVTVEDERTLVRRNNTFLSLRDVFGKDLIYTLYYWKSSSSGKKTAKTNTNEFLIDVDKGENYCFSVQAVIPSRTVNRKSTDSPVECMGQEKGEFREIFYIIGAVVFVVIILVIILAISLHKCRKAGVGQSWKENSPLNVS

Row | binding result | Binder
1 | binds | B1
2 | binds | B2
3 | binds | B3
4 | binds | B4
5 | binds | B5
6 | binds | B6
7 | binds | B7
8 | binds | B8
9 | binds | B9
10 | binds | B10
11 | binds | B11
12 | binds | B12
13 | binds | B13
14 | binds | B14
15 | binds | B15
16 | binds | B16
17 | binds | B17

The binders below were run against T2, soluble human TF (human TF amino acids 1-219 with the FLAG peptide at the C-terminal) (human, UniProt P13726 33-251) (assay: BIACORE; antibody captured on Protein G chip, soluble TF as analyte; mean ± SD, n = 3).
T2 construct: Expressed in CHO cells and purified; The entry is the whole soluble TF construct (TF 1-219 plus FLAG peptide M2); The entry may include the signal peptide; also called shTF; soluble TF
T2 sequence (P13726 other isoform, or with tags, fused parts or gaps limits assumed): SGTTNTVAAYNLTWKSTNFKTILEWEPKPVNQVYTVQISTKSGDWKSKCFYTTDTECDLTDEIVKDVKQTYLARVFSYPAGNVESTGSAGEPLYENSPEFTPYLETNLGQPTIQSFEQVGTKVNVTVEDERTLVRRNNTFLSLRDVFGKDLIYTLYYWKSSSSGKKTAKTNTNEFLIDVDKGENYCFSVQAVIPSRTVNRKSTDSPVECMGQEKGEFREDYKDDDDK

Row | Kd [nM] | koff [s⁻¹] | kon [M⁻¹ s⁻¹] | Binder
18 | 1.39 | 0.000649 | 467000 | B18
19 | 1.17 | 0.000635 | 544000 | B19

The binders below were run against recombinant Protein G (UniProt P19909) (assay: BIACORE; 10 µl of 72 nM antibody injected over Protein G immobilized on CM5 chip).

Row | RU bound [RU] | Binder
20 | 1000 | B19
